Experimental findings from patent publication US20230126796 are described below.

Data set [1] has as its system PAR4-C synthetic peptide.
For data set [2], the system named is PAR4-B synthetic peptide.
Data set [3] concerns the target T1, PAR4-B synthetic peptide.
T1 chain: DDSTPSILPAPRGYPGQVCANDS

Data set [4] has as its target T2, PAR4-C synthetic peptide.
T2 chain: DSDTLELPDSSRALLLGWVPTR

Where two headings read alike, the source gives them in different places.

In the case of alpha-thrombin, the “proteolysis of the peptide, LC-MS/MS” value in the data set on PAR4-C synthetic peptide [1] was “thrombin failed to cleave PAR4-C”; in the data set on PAR4-B synthetic peptide [2], “PAR4-B was cleaved by thrombin between amino acids Arg47 and Gly48”.

B1: cathepsin G (protein)
chain: IIGGRESRPHSRPYMAYLQIQSPAGQSRCGGFLVREDFVLTAAHCWGSNINVTLGAHNIQRRENTQQHITARRAIRHPQYNQRTIQNDIMLLQLSRRVRRNRNVNPVALPRAQEGLRPGTLCTVAGWGRVSMRRGTDTLREVQLRVQRDRQCLRIFGSYDPRRQICVGDRRERKAAFKGDSGGPLLCNNVAHGIVSYGKSSGVPPEVFTRVSSFLPWIRTTMRS
B1: the “proteolysis of the peptide, LC-MS/MS” value in the data set with PAR4-B synthetic peptide [3] is given as “little cleavage was observed with CatG”; with PAR4-C synthetic peptide [4], “CatG cleavage generated several fragments, including DSDTLELPSS”.
